We go through five substances from article PMC4350099.

The test deals with 14-3-3ζ (UniProt P63104). Put plainly: GST pull-down from co-transfected cells. The note with it: reference: wild type.

Turning to “Notch4 (Notch4-ICD; Notch4-ΔhN4) ICD (from UniProt Q99466) 4XA (S1495/1847/1865/1917A)”, for the setting “sites S1495,S1847,S1865,S1917”, the “binding against the reference” value was “lost”.

As for “Notch4 (Notch4-ICD; Notch4-ΔhN4) ICD (from UniProt Q99466) S1847A”, the “binding against the reference” value (sites S1847) is recorded as “weaker”.

On to “Notch4 (Notch4-ICD; Notch4-ΔhN4) ICD (from UniProt Q99466) S1495A”, for which, under “sites S1495”, the “binding against the reference” value is reported as “weaker”.

Take “Notch4 (Notch4-ICD; Notch4-ΔhN4) ICD (from UniProt Q99466) S1865A”: the “binding against the reference” value (sites S1865) is reported as “weaker”.

As to “Notch4 (Notch4-ICD; Notch4-ΔhN4) ICD (from UniProt Q99466) S1917A”, for the setting “sites S1917”, the “binding against the reference” value is given as “weaker”.
